Measurements from patent publication US20260240907A1 (published 2026).

T1: KRAS G12V peptide on HLA-A*02:01 (human)
T1 peptide: KLVVVGAVGV

T2: KRAS G12D peptide on HLA-A*11:01 (human)
T2 peptide: VVVGADGVGK


Legend:
[1] = target: T1, KRAS G12V peptide on HLA-A*02:01; assay: multimer staining
[2] = target: T2, KRAS G12D peptide on HLA-A*11:01; assay: multimer staining

Binder | binding result [1] | binding result [2]
TCR14 (TCR, V domains shown) Valpha: AQKITQTQPGMFVQEKEAVTLDCTYDTSDPSYGLFWYKQPSSGEMIFLIYQGSYDQQNATEGRYSLNFQKARKSANLVISASQLGDSAMYFCAMRGMDSSYKLIFGSGTRLLVRP Vbeta: DVKVTQSSRYLVKRTGEKVFLECVQDMDHENMFWYRQDPGLGLRLIYFSYDVKMKEKGDIPEGYSVSREKKERFSLILESASTNQTSMYLCATRTGQQAGSKDTDTQYFGPGTRLTVL | recognises | 
TCR1 (TCR, V domains shown) Valpha: AQKVTQAQTEISVVEKEDVTLDCVYETRDTTYYLFWYKQPPSGELVFLIRRNSFDEQNEISGRYSWNFQKSTSSFNFTITASQVVDSAVYFCALSEVTGAGSYQLTFGKGTKLSVIP Vbeta: DGGITQSPKYLFRKEGQNVTLSCEQNLNHDAMYWYRQDPGQGLRLIYYSQIVNDFQKGDIAEGYSVSREKKESFPLTVTSAQKNPTAFYLCASSIGAGQHNSPLHFGNGTRLTVT |  | recognises
TCR5 (TCR, V domains shown) Valpha: ILNVEQSPQSLHVQEGDSTNFTCSFPSSNFYALHWYRWETAKSPEALFVMTLNGDEKKKGRISATLNTKEGYSYLYIKGSQPEDSATYLCASADGANNLFFGTGTRLTVIP Vbeta: SAVISQKPSRDICQRGTSLTIQCQVDSQVTMMFWYRQQPRQSLTLIATANQGSEATYESGFVIDKFPISRPNLTFSTLTVSNMSPEDSSIYLCSVGPSGTGPGYTFGSGTRLTVV |  | recognises
TCR4 (TCR, V domains shown) Valpha: GEDVEQSLFLSVREGDSSVINCTYTDSSSTYLYWYKQEPGAGLQLLTYIFSNMDMKQDQRLTVLLNKKDKHLSLRIADTQTGDSAIYFCAERRGNMLTFGGGTRLMVKP Vbeta: NAGVTQTPKFRILKIGQSMTLQCTQDMNHNYMYWYRQDPGMGLKLIYYSVGAGITDKGEVPNGYNVSRSTTEDFPLRLELAAPSQTSVYFCASSRTSGLTDTQYFGPGTRLTVL |  | recognises
TCR10 (TCR, V domains shown) Valpha: GEDVEQSLFLSVREGDSSVINCTYTDSSSTYLYWYKQEPGAGLQLLTYIFSNMDMKQDQRLTVLLNKKDKHLSLRIADTQTGDSAIYFCAEMKDTDKLIFGTGTRLQVFP Vbeta: DGGITQSPKYLFRKEGQNVTLSCEQNLNHDAMYWYRQDPGQGLRLIYYSQIVNDFQKGDIAEGYSVSREKKESFPLTVTSAQKNPTAFYLCASTQVGTGELFFGEGSRLTVL | recognises | 
TCR12 (TCR, V domains shown) Valpha: GEDVEQSLFLSVREGDSSVINCTYTDSSSTYLYWYKQEPGAGLQLLTYIFSNMDMKQDQRLTVLLNKKDKHLSLRIADTQTGDSAIYFCAEIRDTGKLIFGQGTTLQVKP Vbeta: DVKVTQSSRYLVKRTGEKVFLECVQDMDHENMFWYRQDPGLGLRLIYFSYDVKMKEKGDIPEGYSVSREKKERFSLILESASTNQTSMYLCASSRQGTDTQYFGPGTRLTVL | recognises | 
TCR11 (TCR, V domains shown) Valpha: GEDVEQSLFLSVREGDSSVINCTYTDSSSTYLYWYKQEPGAGLQLLTYIFSNMDMKQDQRLTVLLNKKDKHLSLRIADTQTGDSAIYFCAEMKDTDKLIFGTGTRLQVFP Vbeta: not shown | recognises | 
TCR13 (TCR, V domains shown) Valpha: GEDVEQSLFLSVREGDSSVINCTYTDSSSTYLYWYKQEPGAGLQLLTYIFSNMDMKQDQRLTVLLNKKDKHLSLRIADTQTGDSAIYFCAERRDTDKLIFGTGTRLQVFP Vbeta: GAVVSQHPSWVICKSGTSVKIECRSLDFQATTMFWYRQFPKQSLMLMATSNEGSKATYEQGVEKDKFLINHASLTLSTLTVTSAHPEDSSFYICSAWGANTGELFFGEGSRLTVL | recognises | 
TCR6 (TCR, V domains shown) Valpha: AQTVTQSQPEMSVQEAETVTLSCTYDTSESDYYLFWYKQPPSRQMILVIRQEAYKQQNATENRFSVNFQKAAKSFSLKISDSQLGDAAMYFCAYTNSGNTPLVFGKGTRLSVIA Vbeta: DAGVIQSPRHEVTEMGQEVTLRCKPISGHDYLFWYRQTMMRGLELLIYFNNNVPIDDSGMPEDRFSAKMPNASFSTLKIQPSEPRDSAVYFCASKPGPRSWREGAFFGQGTRLTVV |  | recognises
TCR3 (TCR, V domains shown) Valpha: AQKITQTQPGMFVQEKEAVTLDCTYDTSDPSYGLFWYKQPSSGEMIFLIYQGSYDQQNATEGRYSLNFQKARKSANLVISASQLGDSAMYFCVGNEKLTFGTGTRLTIIP Vbeta: KAGVTQTPRYLIKTRGQQVTLSCSPISGHRSVSWYQQTPGQGLQFLFEYFSETQRNKGNFPGRFSGRQFSNSRSEMNVSTLELGDSALYLCASSLATGGYNSPLHFGNGTRLTVT |  | recognises

Results, then the binder that gave them:

binding result [1] | binding result [2] | Binder
recognises |  | TCR8 (TCR, V domains shown) Valpha: GEDVEQSLFLSVREGDSSVINCTYTDSSSTYLYWYKQEPGAGLQLLTYIFSNMDMKQDQRLTVLLNKKDKHLSLRIADTQTGDSAIYFCAESIRDTDKLIFGTGTRLQVFP Vbeta: GAVVSQHPSRVICKSGTSVKIECRSLDFQATTMFWYRQFPKKSLMLMATSNEGSKATYEQGVEKDKFLINHASLTLSTLTVTSAHPEDSSFYICSARDTSGTTRNEQFFGPGTRLTVL
recognises |  | TCR15 (TCR, V domains shown) Valpha: GEDVEQSLFLSVREGDSSVINCTYTDSSSTYLYWYKQEPGAGLQLLTYIFSNMDMKQDQRLTVLLNKKDKHLSLRIADTQTGDSAIYFCADFLRDTDKLIFGTGTRLQVFP Vbeta: GAVVSQHPSWVICKSGTSVKIECRSLDFQATTMFWYRQFPKQSLMLMATSNEGSKATYEQGVEKDKFLINHASLTLSTLTVTSAHPEDSSFYICSARDRTSTDTQYFGPGTRLTVL
recognises |  | TCR9 (TCR, V domains shown) Valpha: GEDVEQSLFLSVREGDSSVINCTYTDSSSTYLYWYKQEPGAGLQLLTYIFSNMDMKQDQRLTVLLNKKDKHLSLRIADTQTGDSAIYFCAEIPGDSSYKLIFGSGTRLLVRP Vbeta: not shown
 | recognises | TCR2 (TCR, V domains shown) Valpha: AQKVTQAQTEISVVEKEDVTLDCVYETRDTTYYLFWYKQPPSGELVFLIRRNSFDEQNEISGRYSWNFQKSTSSFNFTITASQVVDSAVYFCALSEGSNYKLTFGKGTLLTVNP Vbeta: EAGVAQSPRYKIIEKRQSVAFWCNPISGHATLYWYQQILGQGPKLLIQFQNNGVVDDSQLPKDRFSAERLKGVDSTLKIQPAKLEDSAVYLCASSSTGGTGETQYFGPGTRLLVL
recognises |  | TCR16 (TCR, V domains shown) Valpha: DQQVKQNSPSLSVQEGRISILNCDYTNSMFDYFLWYKKYPAEGPTFLISISSIKDKNEDGRFTVFLNKSAKHLSLHIVPSQPGDSAVYFCAVNRDDKIIFGKGTRLHILP Vbeta: DTGVSQDPRHKITKRGQNVTFRCDPISEHNRLYWYRQTLGQGPEFLTYFQNEAQLEKSRLLSDRFSAERPKGSFSTLEIQRTEQGDSAMYLCASSSELAGGINEQFFGPGTRLTVL
